Target: aimp2_crigr AIMP2 (UniProt Q9WVM7)
Sequence (Q9WVM7 whole entry): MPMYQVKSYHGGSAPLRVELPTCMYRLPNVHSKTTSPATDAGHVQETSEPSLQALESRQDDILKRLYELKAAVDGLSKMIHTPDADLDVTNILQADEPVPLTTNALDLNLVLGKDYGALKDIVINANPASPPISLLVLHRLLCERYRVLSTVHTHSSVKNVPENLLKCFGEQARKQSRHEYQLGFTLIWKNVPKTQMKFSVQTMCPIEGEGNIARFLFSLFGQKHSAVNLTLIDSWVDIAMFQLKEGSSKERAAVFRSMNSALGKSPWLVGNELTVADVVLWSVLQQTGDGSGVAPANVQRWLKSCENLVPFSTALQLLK

Sequence of Lysine--tRNA ligase (Cricetulus griseus (Chinese hamster)), P37879 P200L (P37879 whole entry P200L): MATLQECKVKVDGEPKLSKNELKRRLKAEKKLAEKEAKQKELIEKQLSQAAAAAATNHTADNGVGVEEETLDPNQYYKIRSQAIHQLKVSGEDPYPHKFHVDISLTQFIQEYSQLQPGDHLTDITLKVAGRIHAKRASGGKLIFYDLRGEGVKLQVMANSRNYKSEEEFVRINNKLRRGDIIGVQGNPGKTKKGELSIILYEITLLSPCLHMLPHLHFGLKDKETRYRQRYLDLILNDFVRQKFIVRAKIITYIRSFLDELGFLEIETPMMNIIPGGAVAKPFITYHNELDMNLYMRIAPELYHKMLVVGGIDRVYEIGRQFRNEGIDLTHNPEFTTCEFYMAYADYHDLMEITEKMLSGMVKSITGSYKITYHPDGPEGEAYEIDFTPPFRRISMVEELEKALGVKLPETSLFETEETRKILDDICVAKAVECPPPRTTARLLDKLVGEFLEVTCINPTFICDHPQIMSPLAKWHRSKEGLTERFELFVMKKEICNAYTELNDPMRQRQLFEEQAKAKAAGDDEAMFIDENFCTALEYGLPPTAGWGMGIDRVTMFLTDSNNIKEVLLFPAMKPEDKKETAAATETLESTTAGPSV
Sequence of Lysine--tRNA ligase (Cricetulus griseus (Chinese hamster)), P37879 F263V (P37879 whole entry F263V): as the sequence (P37879 whole entry P200L) above, with L200P, F263V counted along it

Substance | effect of a mutation on the interaction
Lysine--tRNA ligase (Cricetulus griseus (Chinese hamster)), P37879 F263V | decreasing interaction strength
Lysine--tRNA ligase (Cricetulus griseus (Chinese hamster)), P37879 P200L | decreasing interaction strength
